Data as given in paper PMC6358511.

Target: EGFRvIII, biotinylated (human, UniProt P00533 25-30+298-645, V30G;internal_change)
Assay: BLI

GGACGGAUUUAAUCGCCGUAGAAAAGCAUGUCAAAGCCGGAACCGUCC (XNA, 2'-fluoro at all C and U; 2'-OH purines; 5' alkyne) [ME07 (alkyne-modified MinE07)]
Kd: 271 nM
